Source: publication PMC2904749
One block for each substance: values may come before it.

Tests used:
[1] = biological target: human βB2-crystallin Q70E (human); test: small angle X-ray scattering
[2] = biological target: human βB2-crystallin Q70E (human); test: dynamic light scattering
[3] = biological target: human βB2-crystallin Q162E (human); test: small angle X-ray scattering
[4] = biological target: human βB2-crystallin Q162E (human); test: dynamic light scattering
[5] = biological target: human βB2-crystallin doubly deamidated mutant Q70EQ162E (human); test: small angle X-ray scattering
[6] = biological target: human βB2-crystallin doubly deamidated mutant Q70EQ162E (human); test: dynamic light scattering

stoichiometry N [1]: 2
stoichiometry N [2]: 2
Substance: human βB2-crystallin Q70E (natural protein)

stoichiometry N [3]: 2
stoichiometry N [4]: 2
Substance: human βB2-crystallin Q162E (natural protein)

stoichiometry N [5]: 2
stoichiometry N [6]: 2
Substance: human βB2-crystallin doubly deamidated mutant Q70EQ162E (natural protein)
